This is an account of results in the RNAGym collection of RNA variant scans (doi:10.1021/acssynbio.7b00057).

Sequences and labels used below:
B1: Pistol ribozyme (parent)
chain: GGGUCGUUGUUCCAUAAUCGCGUGGAUAUGGCACGCAAGUUUCUACCGGGCACCGUAAAUGUCCGACUGGAGCCGUUCGGGCGGCUAUAAACAGACCUCAGGCCCGAAGCGUGGCGGCACCUGCCGCCGGUGGUAAAAAAGAUCGGAAGAGCACACGUCU

The variants in this data set derive from B1. As to the kind of experiment: aptazyme ON/OFF ratio, guanine; higher = stronger switching; co-transcriptional cleavage with and without guanine.
As to U8C G9A U10A U11G C12G C13G, the “aptazyme ON/OFF ratio” value was found to be 1.17.

Turning to U8C G9A U10A U11G C12G C13A, the “aptazyme ON/OFF ratio” value turned out to be 1.16.

For the variant U8C G9A C12U C13G, the “aptazyme ON/OFF ratio” value turned out to be 1.19.

With U8C G9A C12U C13A, the “aptazyme ON/OFF ratio” value worked out at 1.17.

As to U8C G9A C12U C13U, the “aptazyme ON/OFF ratio” value came to 1.25.

With U8C G9A U10C U11A C12G C13G, the “aptazyme ON/OFF ratio” value was found to be 1.5.

For the variant U8C G9A U10C U11A C12G C13A, the “aptazyme ON/OFF ratio” value was 1.23.

On to U8C G9A U10C U11A C12G C13U, for which the “aptazyme ON/OFF ratio” value came out at 1.19.

Take U8A U10C U11G C12U C13G: the “aptazyme ON/OFF ratio” value was determined as 1.2.

Turning to U8A U10C U11G C12U C13U, the “aptazyme ON/OFF ratio” value worked out at 1.27.

For the variant U8A U10C U11G C12U C13A, the “aptazyme ON/OFF ratio” value came to 1.26.

Regarding U8C G9A U10A U11C C12U, the “aptazyme ON/OFF ratio” value was found to be 1.09.

For U8C G9A U10A U11C C12A, the “aptazyme ON/OFF ratio” value worked out at 1.25.

Take U8C G9A U10A U11C C12G: the “aptazyme ON/OFF ratio” value was 1.29.

With U8A U10C U11A C13G, the “aptazyme ON/OFF ratio” value came to 1.07.

For the variant U8A U10C U11A C13U, the “aptazyme ON/OFF ratio” value was 1.07.

Take U8A U10C U11A C13A: the “aptazyme ON/OFF ratio” value came to 1.17.

On to U8A U11C C12G C13A, for which the “aptazyme ON/OFF ratio” value was determined as 1.31.

Consider U8A U11C C12G C13G, for which the “aptazyme ON/OFF ratio” value stood at 1.32.

For the variant U8A U11C C12G C13U, the “aptazyme ON/OFF ratio” value was 1.12.

For the variant U8A U11G C13U, the “aptazyme ON/OFF ratio” value was found to be 1.04.

As to U8A U11G C13A, the “aptazyme ON/OFF ratio” value was 1.03.

Turning to U8A U11G C13G, the “aptazyme ON/OFF ratio” value came out at 1.04.

As to U8A U10G U11C C12A, the “aptazyme ON/OFF ratio” value came out at 1.49.

For U8A U10G U11C C12U, the “aptazyme ON/OFF ratio” value is 1.04.

Turning to U8A U10G U11C C12G, the “aptazyme ON/OFF ratio” value was 1.53.

Take U8C G9A U10A U11A C12U: the “aptazyme ON/OFF ratio” value amounted to 1.35.

In the case of U8C G9A U10A U11A C12G, the “aptazyme ON/OFF ratio” value was 1.32.

Take U8C G9A U10A U11A C12A: the “aptazyme ON/OFF ratio” value came to 1.3.

Turning to U8C G9A U10A C12G C13U, the “aptazyme ON/OFF ratio” value was determined as 1.31.

Take U8C G9A U10A C12G C13G: the “aptazyme ON/OFF ratio” value amounted to 1.18.

Take U8C G9A U10A C12G C13A: the “aptazyme ON/OFF ratio” value came out at 1.14.

Consider U8C G9A U10A U11G C12U C13G, for which the “aptazyme ON/OFF ratio” value is 1.18.

With U8C G9A U10A U11G C12U C13U, the “aptazyme ON/OFF ratio” value stood at 1.23.

Regarding U8C G9A U10A U11G C12U C13A, the “aptazyme ON/OFF ratio” value worked out at 1.18.

U8A U11C C12A C13A: the “aptazyme ON/OFF ratio” value turned out to be 1.24.

Take U8A U11C C12A C13G: the “aptazyme ON/OFF ratio” value amounted to 1.17.

For the variant U8A U11C C12A C13U, the “aptazyme ON/OFF ratio” value stood at 1.38.

Regarding U8C G9A U10C, the “aptazyme ON/OFF ratio” value came to 3.49.

As to U8C G9A U10A, the “aptazyme ON/OFF ratio” value was 1.78.

With U8C, the “aptazyme ON/OFF ratio” value was determined as 3.02.

Take U8A U10G U11G C12U C13G: the “aptazyme ON/OFF ratio” value turned out to be 1.28.

For the variant U8A U10G U11G C12U C13U, the “aptazyme ON/OFF ratio” value amounted to 1.43.

U8A U10G U11G C12U C13A: the “aptazyme ON/OFF ratio” value worked out at 1.15.

In the case of U8C G9A C12G C13A, the “aptazyme ON/OFF ratio” value worked out at 1.23.

In the case of U8C G9A C12G C13G, the “aptazyme ON/OFF ratio” value was determined as 1.27.

Consider U8C G9A C12G C13U, for which the “aptazyme ON/OFF ratio” value was 1.26.

As for U8A U11C C12G, the “aptazyme ON/OFF ratio” value worked out at 1.51.

U8A U11C C12U: the “aptazyme ON/OFF ratio” value amounted to 1.54.

Take U8A U11C C12A: the “aptazyme ON/OFF ratio” value came to 1.29.

On to U8A U10G U11A C12A, for which the “aptazyme ON/OFF ratio” value amounted to 1.06.

With U8A U10G U11A C12G, the “aptazyme ON/OFF ratio” value came out at 1.1.

With U8A U10G U11A C12U, the “aptazyme ON/OFF ratio” value was 1.12.

With U8C G9A U10A C12A C13G, the “aptazyme ON/OFF ratio” value was 1.13.

As for U8C G9A U10A C12A C13A, the “aptazyme ON/OFF ratio” value was 1.17.

Take U8C G9A U10A C12A C13U: the “aptazyme ON/OFF ratio” value is 1.31.

As for U8C G9A U10A U11G C12U, the “aptazyme ON/OFF ratio” value turned out to be 1.26.

U8C G9A U10A U11G C12G: the “aptazyme ON/OFF ratio” value turned out to be 1.12.

As for U8C G9A U10A U11G C12A, the “aptazyme ON/OFF ratio” value is 1.04.

Turning to U8C G9A U10C C12G C13A, the “aptazyme ON/OFF ratio” value turned out to be 1.18.

As to U8C G9A U10C C12G C13G, the “aptazyme ON/OFF ratio” value worked out at 1.4.

As to U8C G9A U10C C12G C13U, the “aptazyme ON/OFF ratio” value turned out to be 1.25.

Take U8C G9A U10A U11C C12G C13A: the “aptazyme ON/OFF ratio” value is 1.21.

As to U8C G9A U10A U11C C12G C13U, the “aptazyme ON/OFF ratio” value amounted to 1.3.

For the variant U8C G9A U10A U11C C12G C13G, the “aptazyme ON/OFF ratio” value came out at 1.35.

In the case of U8C G9A U10C U11A C13G, the “aptazyme ON/OFF ratio” value amounted to 1.15.

U8C G9A U10C U11A C13A: the “aptazyme ON/OFF ratio” value stood at 1.2.

U8C G9A U10C U11A C13U: the “aptazyme ON/OFF ratio” value was 1.3.

For U8C G9A C12U, the “aptazyme ON/OFF ratio” value is 1.38.

Regarding U8C G9A C12A, the “aptazyme ON/OFF ratio” value is 1.35.

On to U8C G9A C12G, for which the “aptazyme ON/OFF ratio” value is 1.26.

Turning to U8A U10C C12U C13U, the “aptazyme ON/OFF ratio” value was 1.35.

For the variant U8A U10C C12U C13A, the “aptazyme ON/OFF ratio” value was 1.22.

U8A U10C C12U C13G: the “aptazyme ON/OFF ratio” value came to 1.11.

Regarding U8A U11C C12U C13U, the “aptazyme ON/OFF ratio” value turned out to be 1.37.

Turning to U8A U11C C12U C13G, the “aptazyme ON/OFF ratio” value amounted to 1.33.

As to U8A U11C C12U C13A, the “aptazyme ON/OFF ratio” value was 1.38.

As to U8C G9A U10C U11C C12U C13G, the “aptazyme ON/OFF ratio” value came to 1.03.

Take U8C G9A U10C U11C C12U C13U: the “aptazyme ON/OFF ratio” value was found to be 1.09.

As for U8C G9A U10C U11C C12U C13A, the “aptazyme ON/OFF ratio” value turned out to be 1.1.

With U8A U10C U11C C12U, the “aptazyme ON/OFF ratio” value was found to be 1.06.

For the variant U8A U10C U11C C12G, the “aptazyme ON/OFF ratio” value is 1.27.

With U8A U10C U11C C12A, the “aptazyme ON/OFF ratio” value is 1.08.

Turning to U8A U10C U11A C12U C13A, the “aptazyme ON/OFF ratio” value was determined as 1.16.
